± gives the uncertainty stated by the source.
Assay: self-splicing fitness, log relative to wild type (ln ratio); higher = more splicing; Tetrahymena group I intron in knt gene, E. coli kanamycin selection, DiMSum; sequences stand for … in CUCUCU…GGAGGGAAAAGUUAUCAGGCAUGCACCUGGUAGCUAGUCUUUAAACCAAUAGAUUGCAUCGGUUUAAAAGGCAAGACCGUCAAAUUGCGGGAAAGGGGUCAACAGCCGUUCAGUACCAAGUCUCAGGGGAAACUUUGAGAUGGCCUUGCAAAGGGUAUGGUAAUAAGCUGACGGACAUGGUCCUAACCACGCAGCCAAGUCCUAAGUCAACAGAUCUUCUGUUGAUAUGGAUGCAGUUCACAGACUAAAUGUCGGUCGGGGAAGAUGUAUUCUUCUCAUAAGAUAUAGUCGGACCUCUCCUUAAUGGGAGCUAGCGGAUGAAGUGAUGCAACACUGGAGCCGCUGGGAACUAAUUUGUAUGCGAAAGUAUAUUGAUUAGUUUUGGAGUACUCGUGGUCG
Outline: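 Six replicate transformations of E. coli BL21(DE3) with a pET-22b(+) library were grown overnight at 37°C or 30°C. The library randomised all eight P1ex-region intron nucleotides, the intron lying in the knt kanamycin-resistance gene, and plates were LB agar with or without 25 μg/mL kanamycin plus 100 μg/mL carbenicillin, 50 μM IPTG and 0.2% rhamnose. Pooled colonies were amplicon-sequenced on an Illumina HiSeq 2500, and fitness is the DiMSum error-weighted combination of wild-type-normalised replicate fold changes, kanamycin versus none.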

| Sequence | self-splicing fitness (ln) (30 °C) | self-splicing fitness (ln) (37 °C) |
| --- | --- | --- |
| AGAUAGCAAUAUUACGUACU | -0.357 ± 0.15 | -0.0062 ± 0.15 |
| AUUGAGCAAUAUUACGUGGU | -3.28 ± 0.21 | -3.12 ± 0.43 |
| GCCGAGCAAUAUUACGGUUA | -0.775 ± 0.071 | -0.0707 ± 0.07 |
| UGGCAGCAAUAUUACGUGGU | -2.84 ± 0.15 | -2.99 ± 0.23 |
| ACACAGCAAUAUUACGAGCU | -0.901 ± 0.077 | -0.406 ± 0.085 |
| GGGUAGCAAUAUUACGCCUU | -1.56 ± 0.18 | -2.07 ± 0.21 |
| AGAGAGCAAUAUUACGAGGU | -2.98 ± 0.2 | -1.87 ± 0.32 |
| ACGCAGCAAUAUUACGAUCU | -0.427 ± 0.063 | 0.356 ± 0.091 |
| AGACAGCAAUAUUACGCGGG | -3.46 ± 0.2 | -2.62 ± 0.18 |
| CGCUAGCAAUAUUACGGCGC | -1.1 ± 0.29 |  |
| CGAAAGCAAUAUUACGCCCU | -0.989 ± 0.15 | 0.0487 ± 0.19 |
| UCCAAGCAAUAUUACGAAAA | -2.15 ± 0.18 | -0.93 ± 0.12 |
| AUGUAGCAAUAUUACGUUCA | -0.72 ± 0.075 | -0.276 ± 0.089 |
| CGGUAGCAAUAUUACGUCUA | -0.754 ± 0.073 | -0.163 ± 0.081 |
| UCCAAGCAAUAUUACGGGGC | -4.07 ± 0.23 | -3.13 ± 0.2 |
| UGGAAGCAAUAUUACGAGGU | -2.77 ± 0.42 | -2.08 ± 0.4 |
| UAAGAGCAAUAUUACGGCUG | -1.55 ± 0.12 | -0.424 ± 0.18 |
| CGUGAGCAAUAUUACGAGUG | -1.24 ± 0.12 | 0.147 ± 0.16 |
| UAAGAGCAAUAUUACGACCG | -2.9 ± 0.35 | -2.21 ± 0.25 |

| Sequence | self-splicing fitness (ln) (30 °C) | self-splicing fitness (ln) (37 °C) |
| --- | --- | --- |
| CCGUAGCAAUAUUACGUCUA | -2.84 ± 0.16 | -1.92 ± 0.18 |
| CGCAAGCAAUAUUACGAUGG | -0.351 ± 0.081 | -0.239 ± 0.095 |
| UGUCAGCAAUAUUACGAAUC | -2.79 ± 0.28 | -1.08 ± 0.22 |
| AUACAGCAAUAUUACGUAGC | -3.19 ± 0.21 | -2.45 ± 0.23 |
| GCGAAGCAAUAUUACGCCGA |  | -1.78 ± 0.35 |
| GCGUAGCAAUAUUACGACAC | -0.714 ± 0.092 | -0.0138 ± 0.097 |
| AUUUAGCAAUAUUACGAGAU | -3.55 ± 0.4 | -1.41 ± 0.28 |
| UAGGAGCAAUAUUACGUUUC | -2.55 ± 0.29 | -2.68 ± 0.44 |
| UAGUAGCAAUAUUACGUUGG | -3.52 ± 0.22 | -2.69 ± 0.16 |
| UUGGAGCAAUAUUACGUUGC |  | -1.44 ± 0.45 |
| CCACAGCAAUAUUACGUAGA | -2.28 ± 0.085 | -1.5 ± 0.12 |
| UGCAAGCAAUAUUACGAGCU | -0.536 ± 0.089 | -0.0945 ± 0.1 |
| GUUAAGCAAUAUUACGCGGA | -0.996 ± 0.27 | -0.987 ± 0.2 |
| UCGGAGCAAUAUUACGCGGU | -3.14 ± 0.23 | -2.94 ± 0.43 |
| UAAUAGCAAUAUUACGCCUG | -0.203 ± 0.13 | -0.254 ± 0.16 |
| CAAGAGCAAUAUUACGAGAU | -3.29 ± 0.29 | -2.8 ± 0.28 |
| AAAAAGCAAUAUUACGUCUC | -1.51 ± 0.078 | -0.62 ± 0.093 |
| ACAGAGCAAUAUUACGCCCU | -3.23 ± 0.23 | -2.02 ± 0.3 |
| GGGUAGCAAUAUUACGGAGC | -1.42 ± 0.14 | -0.425 ± 0.17 |
